Where only a bound is given, the exact number is not on record here.

In test [1] the target is T1, FAM-H3(1–15)K9me3 peptide.
T1 chain: ARTKQTARKSTGGKA
Put plainly: fluorescence polarisation; FAM-labelled H3(1–15) peptide, recombinant protein titrated; room temperature; as described in ref. 28.

Test [2] deals with T2, H3(1-15)unmodified-FAM peptide (C-terminally fluorescein-labelled).
T2 chain: ARTKQTARKSTGGKA
Put plainly: fluorescence polarisation; FAM-labelled H3(1-15) peptide, recombinant protein titrated; RT; as described (ref. 28). On the technique in general: Polarisation of emitted light reports the rotation of a fluorescent probe.

Test [3] concerns the target T3, H3(1-15)K9me3-FAM peptide (C-terminally fluorescein-labelled).
T3 chain: ARTKQTARKSTGGKA
The description is as above.

Test [4] addresses T4, FAM-H3(1-15)K9me3 peptide (N-terminally fluorescein-labelled).
T4 chain: ARTKQTARKSTGGKA
The test is described as above.

Test [5] concerns the target T1, FAM-H3(1–15)K9me3 peptide. Put plainly: fluorescence polarization. As to conditions: chain shown with the change; read at the highest protein concentration of the titration, about 50 µM on the x axis; parent: est. 0.28; read off a plot.

B1: hTTD-PHD (domain or fragment)
chain: MWDETELGLYKVNEYVDARDTNMGAWFEAQVVRVTRKAPSRDEPCSSTSRPALEEDVIYHVKYDDYPENGVVQMNSRDVRARARTIIKWQDLEVGQVVMLNYNPDNPKERGFWYDAEISRKRETRTARELYANVVLGDDSLNDCRIIFVDEVFKIERPGEGSPMVDNPMRRKSGPSCKHCKDDVNRLCRVCACHLCGGRQDPDKQLMCDECDMAFHIYCLDPPLSSVPSEDEWYCPECRND
modifications: not checked
B1: the Kd in test [1] was found to be 16.2 µM.

B2: hTTD-PHD module carrying the nine amino acid insertion of mLinker 2 V1 (domain or fragment)
chain: MWDETELGLYKVNEYVDARDTNMGAWFEAQVVRVTRKAPSRDEPCSSTSRPALEEDVIYHVKYDDYPENGVVQMNSRDVRARARTIIKWQDLEVGQVVMLNYNPDNPKERGFWYDAEISRKRETRTARELYANVVLGDDSLNDCRIIFVDEVFKIERPGEGSPMVDNPMRPPPALRNTGKSGPSCKHCKDDVNRLCRVCACHLCGGRQDPDKQLMCDECDMAFHIYCLDPPLSSVPSEDEWYCPECRNDASEVVLAGE
modifications: not checked
Consider B2, for which the Kd in test [2] was 4.5 µM; in test [3] it was 6.9 µM; in test [4], more than 50 µM.

B3: hTTD-PHD, mLinker2 V1* (domain or fragment)
chain: MWDETELGLYKVNEYVDARDTNMGAWFEAQVVRVTRKAPSRDEPCSSTSRPALEEDVIYHVKYDDYPENGVVQMNSRDVRARARTIIKWQDLEVGQVVMLNYNPDNPKERGFWYDAEISRKRETRTARELYANVVLGDDSLNDCRIIFVDEVFKIERPGEGSPMVDNPMRPPPALRNTGKSGPSCKHCKDDVNRLCRVCACHLCGGRQDPDKQLMCDECDMAFHIYCLDPPLSSVPSEDEWYCPECRNDASEVVLAGE
modifications: not checked
As for B3, in test [1], the Kd is more than 100 µM.

B4: mTTD-PHD V1 P293A; P294A; P295A (protein)
chain: VWEDTDLGLYKVNEYVDVRDNIFGAWFEAQVVQVQKRALSEDEPCSSSAVKTSEDDIMYHVKYDDYPEHGVDIVKAKNVRARARTVIPWENLEVGQVVMANYNVDYPRKRGFWYDVEICRKRQTRTARELYGNIRLLNDSQLNNCRIMFVDEVLMIELPKERRPLIASPSQAAAALRNTGKSGPSCRFCKDDENKPCRKCACHVCGGREAPEKQLLCDECDMAFHLYCLKPPLTSVPPEPEWYCPSCRTDSSEVVQAGE
Consider B4, for which, in test [5], the response (fraction bound) is 0.87.

B5: mTTD-PHD V1 K302A; S303A (protein)
chain: VWEDTDLGLYKVNEYVDVRDNIFGAWFEAQVVQVQKRALSEDEPCSSSAVKTSEDDIMYHVKYDDYPEHGVDIVKAKNVRARARTVIPWENLEVGQVVMANYNVDYPRKRGFWYDVEICRKRQTRTARELYGNIRLLNDSQLNNCRIMFVDEVLMIELPKERRPLIASPSQPPPALRNTGAAGPSCRFCKDDENKPCRKCACHVCGGREAPEKQLLCDECDMAFHLYCLKPPLTSVPPEPEWYCPSCRTDSSEVVQAGE
For the molecule B5, the response (fraction bound) in test [5] came out at 0.2.

B6: mTTD-PHD V1 R298A (protein)
chain: VWEDTDLGLYKVNEYVDVRDNIFGAWFEAQVVQVQKRALSEDEPCSSSAVKTSEDDIMYHVKYDDYPEHGVDIVKAKNVRARARTVIPWENLEVGQVVMANYNVDYPRKRGFWYDVEICRKRQTRTARELYGNIRLLNDSQLNNCRIMFVDEVLMIELPKERRPLIASPSQPPPALANTGKSGPSCRFCKDDENKPCRKCACHVCGGREAPEKQLLCDECDMAFHLYCLKPPLTSVPPEPEWYCPSCRTDSSEVVQAGE
Turning to B6, the response (fraction bound) in test [5] worked out at 0.97.

By Kd is commonly meant the free concentration of one partner at which half of the binding sites on the other are occupied at equilibrium, for simple one-to-one binding.

These data come from PMC7430637.
